Laboratory results as given in patent US20230203156A1, “ANTI-MDR1 ANTIBODIES AND USES THEREOF” (KENJOCKETY BIOTECHNOLOGY, INC., priority 2020, published 2023).

Legend:
[1] = tested on: MES-SA DX5 uterine sarcoma; assay: MES-SA DX5 drug-resistant uterine sarcoma model in nude mice; type: in vivo
Procedure: (§1) Anti-ABCB1 antibodies B1.129, B1.261, B1.223, B1.225, B1.188, B1.28, and B1.226 were tested for effect on growth of tumors in immunodeficient mice. The following cancer cell lines were used for generating tumor models.
MES-SA DX5: The multi drug-resistant cell line MES-SA/Dx5 (Sigma. 95051031) was derived from the human uterine sarcoma cell line MES-SA (Sigma Catalogue number. 95051030) which was originally obtained from a tumour from a person at the time of hysterectomy. […] Cross resistance to bleomycin, cisplatin, carmustine, 5-fluorouracil or methotrexate was not observed.
Nude mice were implanted with MES-SA DX5 cells to model uterine sarcoma. Anti-B1 monoclonal antibodies are efficacious in MES-SA DX5 uterine sarcoma model in nude mice.

[2] = target: T1, human MDR1 extracellular loops 1 and 4 (ECD1, ECD4) (Homo sapiens, UniProt P08183); assay: Epitope mapping with mutant human MDR1 expressed on 293T cells (flow cytometry); type: binding; conditions: extracellular loop 1 and extracellular loop 4
T1 construct: FLAG (C); expressed in transfected cells; host or cells: 293T
Text: To determine binding of anti-MDR1 mAbs listed in Table 2 to the two major extracellular loops 1 and 4 of MDR1, various mutations were constructed to alter or substitute these two loops. To examine binding to cynomolgus extracellular loops, the extracellular loop 1 and/or loop 4 of cynomolgus MDR1 were grafted (with a C-terminal FLAG tag) to substitute for the human loops in the human MDR1 using standard techniques. To examine binding dependence on the normal human loops, MDR1 variants with deletion 79-102 and deletion 82-99 in loop 1 were also generated. Loop 1 is also referred to as ECD1. Loop 4 is also referred to as ECD4. These mutant MDR1 efflux pump variants were expressed on 293T cells using standard methods to generate cells that could be used to distinguish binding of various anti-MDR1 mAbs. The different cells were incubated with different anti-MDR1 mAbs for about 1 hour at 4° C. The cells were washed twice with FACS buffer (PBS containing 0.5% BSA). Alexa647 labeled goat anti-human antibody was added as a secondary antibody, and the samples were incubated on ice for another 1 hour. Samples were washed again and analyzed by flow cytometry.
FIG. 9 summarizes the findings from preliminary epitope mapping using mutant human MDR1. […] For example, anti-MDR1 mAb B1.129 requires ECD1 and ECD4 for binding to human MDR1. All of the anti-MDR1 antibodies contact ECD4. […] ECD1 refers to the first extracellular domain of human ABCB1, ECD4 refers to the fourth extracellular domain of human ABCB1 and “others” refers to the remainder of the extracellular domains 2-3 and 5-6 of human ABCB1. Only binding to ECD1 and ECD4 was tested.

[3] = tested on: A2780 ADR ovarian carcinoma; assay: A2780 ADR drug-resistant ovarian carcinoma model in nude mice; type: in vivo
Procedure: as §1
A2780 ADR: The adriamycin-resistant cell line A2780ADR has been developed by exposure of the parent A2780 cell line (Sigma catalogue no. 93112519) to adriamycin. A2780ADR is cross-resistant to melphalan and vinblastine. To retain resistance adriamycin has to be added to the media. The cells grow as a monolayer and in suspension in spinner cultures and are tumorigenic in immune deficient mice. Together with the cisplatin-resistant variant A2780cis these lines only differ in their exposure to a single drug and should facilitate the search for molecular changes responsible for the expression of pleiotropic drug resistance in human ovarian cancer.
Nude mice were implanted with A2780 ADR cells to model ovarian carcinoma. Anti-B1 monoclonal antibodies are efficacious in A2780 ADR ovarian carcinoma model in nude mice.

[4] = tested on: MES-SA DX5 uterine sarcoma; assay: MES-SA DX5 uterine sarcoma model in NSG mice; type: in vivo
Text: NSG mice were implanted with MES-SA DX5 cells to model uterine sarcoma. Anti-B1 monoclonal antibodies are efficacious in MES-SA DX5 uterine sarcoma model in NSG mice.

B1: B1.223: anti-MDR1 antibody, Mouse; VH SEQ ID NO:102, VL SEQ ID NO:104 (antibody, listed as Mus musculus, V domains shown)
VH: EVKLVESGGALVKPGGSLKLSCAASGFTFSNYAMSWVRQTPEKRLEWVATISSGGSYTYYPDSVKGRFTISRDNAKTTLYLQMSGLRSEDTALYYCAKFSNYGRFASWGQGTLVTVSS
VL: DIQMIQSPLSLPVSLGDQASISCRSSQSIVHSSGNTYLEWYLQKPGQSPRLLIYKVSNRFFGVPDRISGSGSGTDFTLRISRVEAEDLGVYYCFQGSHVPYTFGGGTKLELK
For B1, which “tumor volume / tumor growth, single agent” value ([1]; MES-SA DX5, nude mice, antibody as a single agent) is on record?
Its value is “decreased tumor volume”.

What about the “tumor volume / tumor growth, in combination with paclitaxel” value ([1]; MES-SA DX5, nude mice, antibody plus paclitaxel) of the same molecule?
Its value is “decreased tumor volume”.

What about the “sensitization of MES-SA DX5 uterine sarcoma to paclitaxel” value ([1]; MES-SA DX5 tumors in vivo) of the same molecule?
The value was “sensitized”.

And the “epitope on human MDR1” value [2]?
Its value is “bind to an epitope comprising extracellular loop 1 and extracellular loop 4”.

What about the “tumor volume, single agent” value ([3]; antibody as a single agent) of the same molecule?
Its value is “decreased tumor volume”.

What about the “tumor volume, in combination with paclitaxel” value ([3]; antibody plus paclitaxel) of the same molecule?
Its value is “decreased tumor volume”.

And the “sensitization of MES-SA DX5 uterine sarcoma to paclitaxel” value [4]?
The value was “sensitizes”.
